Data as given in paper PMC6082870, “Molecular architecture of the multifunctional collagen lysyl hydroxylase and glycosyltransferase LH3” (Nature Communications, 2018).

What was measured:
[1] = biological target: the molecule itself; test: not stated; oligomeric assembly of LH3 N223S, Supplementary Fig. 11B; method not given
[2] = biological target: the molecule itself; test: SEC; analytical size exclusion, Superdex 200 5/150 GL, 25 mM HEPES/NaOH, 200 mM NaCl, pH 8.0
[3] = biological target: the molecule itself; test: SEC-SAXS; 50 uL LH3 at 4 mg/mL on Superdex 200 PC 3.2/300 Increase, 25 mM HEPES/NaOH, 200 mM NaCl, pH 8.0, online SAXS at ESRF BM29

B1: LH3 N223S pathogenic variant (enzyme, human, UniProt O60568 25-738, looked up)
chain: SDRPRGRDPVNPEKLLVITVATAETEGYLRFLRSAEFFNYTVRTLGLGEEWRGGDVARTVGGGQKVRWLKKEMEKYADREDMIIMFVDSYDVILAGSPTELLKKFVQSGSRLLFSAESFCWPEWGLAEQYPEVGTGKRFLNSGGFIGFATTIHQIVRQWKYKDDDDDQLFYTRLYLDPGLREKLSLNLDHKSRIFQNLSGALDEVVLKFDRNRVRIRNVAYDTLPIVVHGNGPTKLQLNYLGNYVPNGWTPEGGCGFCNQDRRTLPGGQPPPRVFLAVFVEQPTPFLPRFLQRLLLLDYPPDRVTLFLHNNEVFHEPHIADSWPQLQDHFSAVKLVGPEEALSPGEARDMAMDLCRQDPECEFYFSLDADAVLTNLQTLRILIEENRKVIAPMLSRHGKLWSNFWGALSPDEYYARSEDYVELVQRKRVGVWNVPYISQAYVIRGDTLRMELPQRDVFSGSDTDPDMAFCKSFRDKGIFLHLSNQHEFGRLLATSRYDTEHLHPDLWQIFDNPVDWKEQYIHENYSRALEGEGIVEQPCPDVYWFPLLSEQMCDELVAEMEHYGQWSGGRHEDSRLAGGYENVPTVDIHMKQVGYEDQWLQLLRTYVGPMTESLFPGYHTKARAVMNFVVRYRPDEQPSLRPHHDSSTFTLNVALNHKGLDYEGGGCRFLRYDCVISSPRKGWALLHPGRLTHYHEGLPTTWGTRYIMVSFVDP
notes: human LH3 (PLOD3), GenBank BC011674.2, devoid of the N-terminal signal peptide, with the pathogenic mutation N223S; The mutation was reported to add an N-linked glycosylation on Asn221; not shown: 6xHis, N-terminal, cleaved
For B1, the “stoichiometry N” value [1] was 2.

B2: LH3 L715D mutant (enzyme, human, UniProt O60568 25-738, looked up)
chain: SDRPRGRDPVNPEKLLVITVATAETEGYLRFLRSAEFFNYTVRTLGLGEEWRGGDVARTVGGGQKVRWLKKEMEKYADREDMIIMFVDSYDVILAGSPTELLKKFVQSGSRLLFSAESFCWPEWGLAEQYPEVGTGKRFLNSGGFIGFATTIHQIVRQWKYKDDDDDQLFYTRLYLDPGLREKLSLNLDHKSRIFQNLNGALDEVVLKFDRNRVRIRNVAYDTLPIVVHGNGPTKLQLNYLGNYVPNGWTPEGGCGFCNQDRRTLPGGQPPPRVFLAVFVEQPTPFLPRFLQRLLLLDYPPDRVTLFLHNNEVFHEPHIADSWPQLQDHFSAVKLVGPEEALSPGEARDMAMDLCRQDPECEFYFSLDADAVLTNLQTLRILIEENRKVIAPMLSRHGKLWSNFWGALSPDEYYARSEDYVELVQRKRVGVWNVPYISQAYVIRGDTLRMELPQRDVFSGSDTDPDMAFCKSFRDKGIFLHLSNQHEFGRLLATSRYDTEHLHPDLWQIFDNPVDWKEQYIHENYSRALEGEGIVEQPCPDVYWFPLLSEQMCDELVAEMEHYGQWSGGRHEDSRLAGGYENVPTVDIHMKQVGYEDQWLQLLRTYVGPMTESLFPGYHTKARAVMNFVVRYRPDEQPSLRPHHDSSTFTLNVALNHKGLDYEGGGCRFLRYDCVISSPRKGWALLHPGRDTHYHEGLPTTWGTRYIMVSFVDP
notes: human LH3 (PLOD3), GenBank BC011674.2, devoid of the N-terminal signal peptide, with L715D; not shown: 6xHis, N-terminal, cleaved
B2: binds [2].

B3: human lysyl hydroxylase 3 (LH3/PLOD3), wild type (enzyme, UniProt O60568 25-738, looked up)
chain: SDRPRGRDPVNPEKLLVITVATAETEGYLRFLRSAEFFNYTVRTLGLGEEWRGGDVARTVGGGQKVRWLKKEMEKYADREDMIIMFVDSYDVILAGSPTELLKKFVQSGSRLLFSAESFCWPEWGLAEQYPEVGTGKRFLNSGGFIGFATTIHQIVRQWKYKDDDDDQLFYTRLYLDPGLREKLSLNLDHKSRIFQNLNGALDEVVLKFDRNRVRIRNVAYDTLPIVVHGNGPTKLQLNYLGNYVPNGWTPEGGCGFCNQDRRTLPGGQPPPRVFLAVFVEQPTPFLPRFLQRLLLLDYPPDRVTLFLHNNEVFHEPHIADSWPQLQDHFSAVKLVGPEEALSPGEARDMAMDLCRQDPECEFYFSLDADAVLTNLQTLRILIEENRKVIAPMLSRHGKLWSNFWGALSPDEYYARSEDYVELVQRKRVGVWNVPYISQAYVIRGDTLRMELPQRDVFSGSDTDPDMAFCKSFRDKGIFLHLSNQHEFGRLLATSRYDTEHLHPDLWQIFDNPVDWKEQYIHENYSRALEGEGIVEQPCPDVYWFPLLSEQMCDELVAEMEHYGQWSGGRHEDSRLAGGYENVPTVDIHMKQVGYEDQWLQLLRTYVGPMTESLFPGYHTKARAVMNFVVRYRPDEQPSLRPHHDSSTFTLNVALNHKGLDYEGGGCRFLRYDCVISSPRKGWALLHPGRLTHYHEGLPTTWGTRYIMVSFVDP
modifications: N-linked glycosylations at Asn63 and Asn548
notes: a vector signal peptide, 6xHis tag and TEV site precede the BamHI site, so a few vector residues may remain after TEV cleavage; also called wild-type LH3; full-length human LH3; not shown: 6xHis, N-terminal, cleaved
For B3, the “stoichiometry N” value [3] was 2.

B4: LH3 W148N-L150T glycosylated control mutant (enzyme, human, UniProt O60568 25-738, looked up)
chain: SDRPRGRDPVNPEKLLVITVATAETEGYLRFLRSAEFFNYTVRTLGLGEEWRGGDVARTVGGGQKVRWLKKEMEKYADREDMIIMFVDSYDVILAGSPTELLKKFVQSGSRLLFSAESFCWPENGTAEQYPEVGTGKRFLNSGGFIGFATTIHQIVRQWKYKDDDDDQLFYTRLYLDPGLREKLSLNLDHKSRIFQNLNGALDEVVLKFDRNRVRIRNVAYDTLPIVVHGNGPTKLQLNYLGNYVPNGWTPEGGCGFCNQDRRTLPGGQPPPRVFLAVFVEQPTPFLPRFLQRLLLLDYPPDRVTLFLHNNEVFHEPHIADSWPQLQDHFSAVKLVGPEEALSPGEARDMAMDLCRQDPECEFYFSLDADAVLTNLQTLRILIEENRKVIAPMLSRHGKLWSNFWGALSPDEYYARSEDYVELVQRKRVGVWNVPYISQAYVIRGDTLRMELPQRDVFSGSDTDPDMAFCKSFRDKGIFLHLSNQHEFGRLLATSRYDTEHLHPDLWQIFDNPVDWKEQYIHENYSRALEGEGIVEQPCPDVYWFPLLSEQMCDELVAEMEHYGQWSGGRHEDSRLAGGYENVPTVDIHMKQVGYEDQWLQLLRTYVGPMTESLFPGYHTKARAVMNFVVRYRPDEQPSLRPHHDSSTFTLNVALNHKGLDYEGGGCRFLRYDCVISSPRKGWALLHPGRLTHYHEGLPTTWGTRYIMVSFVDP
modifications: additional glycosylation at the compact N-terminal (crystal contact) interface, introduced by W148N-L150T
notes: human LH3 (PLOD3), GenBank BC011674.2, devoid of the N-terminal signal peptide, with W148N and L150T; not shown: 6xHis, N-terminal, cleaved
For B4, the “stoichiometry N” value [2] was 2.
